The data set deals with the molecule itself. Nature of the data set: SEC; Superdex 200 HR 10/30 in PBS; 450 µg/100 µL protein loaded; 0.5 mL/min; UV 280 nm; markers albumin (66.4 kDa) and α-lactalbumin (14.2 kDa); dimer in rapid equilibrium with monomer. In general terms: SEC sorts molecules by how far they enter the pores of the column.

Numbering of substitutions follows the chain as printed. Names and notes keep the numbering of the source.

B1: wild-type βB2-crystallin (natural protein, human)
chain: ASDHQTQAGKPQSLNPKIIIFEQENFQGHSHELNGPCPNLKETGVEKAGSVLVQAGPWVGYEQANCKGEQFVFEKGEYPRWDSWTSSRRTDSLSSLRPIKVDSQEHKIILYENPNFTGKKMEIIDDDVPSFHAHGYQEKVSSVRVQSGTWVGYQYPGYRGLQYLLEKGDYKDSSDFGAPHPQVQSVRRIRDMQWHQRGAFHPSN
notes: human beta-crystallin B2 (CRBB2 cDNA from a human cDNA library in pGEX-4t-1); Residues left by the vector after the thrombin cut are not described; also called WT βB2-crystallin; Beta-crystallin B2; source: E. coli BL21 (DE3), purified (glutathione-agarose, GST cut off with thrombin)
On to B1, for which the binding result is “binds”.

B2: S175G/H181Q mutant βB2-crystallin (natural protein, human)
chain: B1 chain with S174G, H180Q
notes: human beta-crystallin B2 (CRBB2 cDNA in pGEX-4t-1) with the two changes found in cataract lenses, made by site-directed mutagenesis; Residues left by the vector after the thrombin cut are not described; also called S175G/H181Q βB2-crystallin; CRBB2 S175G/H181Q; source: E. coli BL21 (DE3), purified (glutathione-agarose, GST cut off with thrombin)
On to B2, for which the binding result is “binds”.

The values are drawn from paper PMC7555777, “Cataract-Associated New Mutants S175G/H181Q of βΒ2-Crystallin and P24S/S31G of γD-Crystallin Are Involved in Protein Aggregation by Structural Changes” (International Journal of Molecular Sciences, 2020).
